± gives the standard deviation of the averaged measurements.
B1: library; a variant is named by its letters at N, in order (parent)
chain: GCUGUCACCGAGAAACUGUGAAGUAUAUCUUAAACCUGGGCACUUAAAAGAUAUAUGGAGUUAGUAGUGCAACCUGCUCGGUCUGAUGAGUCCNNNNNNGGACGAAACAGC

Tests used:
[1] = variants of: B1; test: FACS-Seq fitted mean relative fluorescence mCherry/BFP without ligand (log10 relative fluorescence); HEK293T; ligand: cyclic di-GMP (c-di-GMP-II aptamer); higher = higher reporter protein expression; settings: ligand present: no
Summary of the method: (§1)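 HEK293T libraries were lentivirally transduced with an mCherry reporter carrying the ribozyme switch and an EF1α-BFP marker, enriched, and incubated for 48 h with or without ligand before sorting into 6 bins by mCherry/BFP. Genomic DNA from each bin was PCR-amplified, barcoded and sequenced on MiSeq. Fluorescence is the fitted normal mean of the bin counts. The fit used log10(mCherry/BFP), and means were scaled to five spiked-in control ribozymes.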

[2] = variants of: B1; test: normalized RNA/DNA level without ligand (relative to sTRSVctl = 100) (log10 (% of sTRSVctl)); HEK293T; ligand: cyclic di-GMP (c-di-GMP-II aptamer); higher = less ribozyme self-cleavage, higher mRNA level; settings: reporter: mCherry (pCS4076), ligand present: no
Summary of the method: (§2)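 RNA level was computed as RNA reads over DNA reads divided by a spiked-in non-cleaving sequence or by the top sequences, then scaled and log-transformed. Scaling was ×100 with log10, the top group was 25 sequences, and the threshold was ≥100 DNA reads. The reads came from HEK293T cells transfected at 4 µg per 6-well well with ribozyme switch library plasmids (mCherry, or eGFP in some ligand experiments). Total RNA was extracted with EDTA 72 h after transfection, with any ligand added 1 h before it.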

[3] = variants of: B1; test: FACS-Seq fitted mean relative fluorescence mCherry/BFP with ligand (log10 relative fluorescence); HEK293T; ligand: cyclic di-GMP (c-di-GMP-II aptamer); ligand concentration (+) FACS-Seq: 1 mM; higher = higher reporter protein expression; settings: ligand present: yes
Summary of the method: as §1

[4] = variants of: B1; test: normalized RNA/DNA level with ligand (relative to sTRSVctl = 100) (log10 (% of sTRSVctl)); HEK293T; ligand: cyclic di-GMP (c-di-GMP-II aptamer); ligand concentration (+) RNA-Seq: 1 mM; higher = less ribozyme self-cleavage, higher mRNA level; settings: reporter: mCherry (pCS4076), ligand present: yes
Summary of the method: as §2

CUAUUA
FACS-Seq fitted mean (log10) [1]: -0.459 ± 0.052 | normalized RNA/DNA level without ligand (log10) [2]: 1.38 ± 0.033 | FACS-Seq fitted mean (log10) [3]: -0.243 ± 0.052 | normalized RNA/DNA level with ligand (log10) [4]: 1.6 ± 0.064

AUAAUA
FACS-Seq fitted mean (log10) [1]: -0.503 ± 0.0074 | normalized RNA/DNA level without ligand (log10) [2]: 1.58 ± 0.0077 | FACS-Seq fitted mean (log10) [3]: -0.158 ± 0.15 | normalized RNA/DNA level with ligand (log10) [4]: 1.75 ± 0.092

AUAAUU
FACS-Seq fitted mean (log10) [1]: -0.558 ± 0.032 | normalized RNA/DNA level without ligand (log10) [2]: 1.55 ± 0.027 | FACS-Seq fitted mean (log10) [3]: -0.213 ± 0.038 | normalized RNA/DNA level with ligand (log10) [4]: 1.72 ± 0.087

UGUACC
FACS-Seq fitted mean (log10) [1]: 0.263 ± 0.21 | normalized RNA/DNA level without ligand (log10) [2]: 1.79 ± 0.068 | FACS-Seq fitted mean (log10) [3]: 0.4414 ± 0.00076 | normalized RNA/DNA level with ligand (log10) [4]: 1.9 ± 0.13

UGUACU
FACS-Seq fitted mean (log10) [1]: -0.0524 ± 0.051 | normalized RNA/DNA level without ligand (log10) [2]: 1.76 ± 0.05 | FACS-Seq fitted mean (log10) [3]: 0.296 ± 0.04 | normalized RNA/DNA level with ligand (log10) [4]: 1.87 ± 0.094

UUACCC
FACS-Seq fitted mean (log10) [1]: -0.256 ± 0.059 | normalized RNA/DNA level without ligand (log10) [2]: 1.798 ± 0.0066 | FACS-Seq fitted mean (log10) [3]: 0.0203 ± 0.12 | normalized RNA/DNA level with ligand (log10) [4]: 1.88 ± 0.11

UUACCA
FACS-Seq fitted mean (log10) [1]: -0.0643 ± 0.075 | normalized RNA/DNA level without ligand (log10) [2]: 1.75 ± 0.055 | FACS-Seq fitted mean (log10) [3]: 0.275 ± 0.047 | normalized RNA/DNA level with ligand (log10) [4]: 1.84 ± 0.1

CGUCAA
FACS-Seq fitted mean (log10) [1]: -0.556 ± 0.083 | normalized RNA/DNA level without ligand (log10) [2]: 1.31 ± 0.093 | FACS-Seq fitted mean (log10) [3]: -0.352 ± 0.01 | normalized RNA/DNA level with ligand (log10) [4]: 1.49 ± 0.13

CUAAUG
FACS-Seq fitted mean (log10) [1]: -0.485 ± 0.042 | normalized RNA/DNA level without ligand (log10) [2]: 1.49 ± 0.13 | FACS-Seq fitted mean (log10) [3]: -0.179 ± 0.011 | normalized RNA/DNA level with ligand (log10) [4]: 1.7 ± 0.092

CUAAUA
FACS-Seq fitted mean (log10) [1]: -0.533 ± 0.025 | normalized RNA/DNA level without ligand (log10) [2]: 1.39 ± 0.066 | FACS-Seq fitted mean (log10) [3]: -0.316 ± 0.011 | normalized RNA/DNA level with ligand (log10) [4]: 1.6 ± 0.12

CUAAUU
FACS-Seq fitted mean (log10) [1]: -0.314 ± 0.073 | normalized RNA/DNA level without ligand (log10) [2]: 1.537 ± 0.0049 | FACS-Seq fitted mean (log10) [3]: 0.0103 ± 0.0086 | normalized RNA/DNA level with ligand (log10) [4]: 1.74 ± 0.081

AUAGUA
FACS-Seq fitted mean (log10) [1]: 0.0378 ± 0.13 | normalized RNA/DNA level without ligand (log10) [2]: 1.5 ± 0.034 | FACS-Seq fitted mean (log10) [3]: 0.3053 ± 0.00099 | normalized RNA/DNA level with ligand (log10) [4]: 1.65 ± 0.046

AUAGUU
FACS-Seq fitted mean (log10) [1]: -0.615 ± 0.079 | normalized RNA/DNA level without ligand (log10) [2]: 1.539 ± 0.0099 | FACS-Seq fitted mean (log10) [3]: -0.438 ± 0.02 | normalized RNA/DNA level with ligand (log10) [4]: 1.73 ± 0.089

CGGUUA
FACS-Seq fitted mean (log10) [1]: -0.67 ± 0.04 | normalized RNA/DNA level without ligand (log10) [2]: 1.27 ± 0.12 | FACS-Seq fitted mean (log10) [3]: -0.411 ± 0.028 | normalized RNA/DNA level with ligand (log10) [4]: 1.43 ± 0.091

CUCCUA
FACS-Seq fitted mean (log10) [1]: -0.0767 ± 0.066 | normalized RNA/DNA level without ligand (log10) [2]: 1.44 ± 0.12 | FACS-Seq fitted mean (log10) [3]: 0.0398 ± 0.14 | normalized RNA/DNA level with ligand (log10) [4]: 1.68 ± 0.14

CGUCCU
FACS-Seq fitted mean (log10) [1]: -0.313 ± 0.09 | normalized RNA/DNA level without ligand (log10) [2]: 1.6 ± 0.033 | FACS-Seq fitted mean (log10) [3]: 0.0379 ± 0.021 | normalized RNA/DNA level with ligand (log10) [4]: 1.78 ± 0.12

GGUAUC
FACS-Seq fitted mean (log10) [1]: -0.466 ± 0.023 | normalized RNA/DNA level without ligand (log10) [2]: 1.63 ± 0.018 | FACS-Seq fitted mean (log10) [3]: -0.193 ± 0.022 | normalized RNA/DNA level with ligand (log10) [4]: 1.79 ± 0.12

AUACAA
FACS-Seq fitted mean (log10) [1]: -0.183 ± 0.011 | normalized RNA/DNA level without ligand (log10) [2]: 1.54 ± 0.048 | FACS-Seq fitted mean (log10) [3]: 0.0162 ± 0.13 | normalized RNA/DNA level with ligand (log10) [4]: 1.73 ± 0.099
